Results from PMC3508906 (Channels, 2012).

B1: YbiO, C-terminally His-tagged (pYbiO) (natural protein, E. coli K12 MG1655, UniProt P75783 19-741, looked up)
chain: VSIPGVTTTTTTDSTTEPAPEPDIEQKKAAYGALADVLDNDTSRKELIDQLRTVAATPPAEPVPKIVPPTLVEEQTVLQKVTEVSRHYGEALSARFGQLYRNITGSPHKPFNPQTFSNALTHFSMLAVLVFGFYWLIRLCALPLYRKMGQWARQKNRERSNWLQLPAMIIGAFIIDLLLLALTLFVGQVLSDNLNAGSRTIAFQQSLFLNAFALIEFFKAVLRLIFCPNVAELRPFTIQDESARYWSRRLSWLSSLIGYGLIVAVPIISNQVNVQIGALANVIIMLCMTVWALYLIFRNKKEITQHLLNFAEHSLAFFSLFIRAFALVWHWLASAYFIVLFFFSLFDPGNSLKFMMGATVRSLAIIGIAAFVSGMFSRWLAKTITLSPHTQRNYPELQKRLNGWLSAALKTARILTVCVAVMLLLSAWGLFDFWNWLQNGAGQKTVDILIRIALILFFSAVGWTVLASLIENRLASDIHGRPLPSARTRTLLTLFRNALAVIISTITIMIVLSEIGVNIAPLLAGAGALGLAISFGSQTLVKDIITGVFIQFENGMNTGDLVTIGPLTGTVERMSIRSVGVRQDTGAYHIIPWSSITTFANFVRGIGSVVANYDVDRHEDADKANQALKDAVAELMENEEIRGLIIGEPNFAGIVGLSNTAFTLRVSFTTLPLKQWTVRFALDSQVKKHFDLAGVRAPVQTYQVLPAPGATPAEPLPPGEPTL
B2: YnaI, C-terminally His-tagged (pYnaI) (natural protein, E. coli, UniProt P0AEB5 1-343, looked up)
chain: MIAELFTNNALNLVIIFGSCAALILMSFWFRRGNRKRKGFLFHAVQFLIYTIIISAVGSIINYVIENYKLKFITPGVIDFICTSLIAVILTIKLFLLINQFEKQQIKKGRDITSARIMSRIIKITIIVVLVLLYGEHFGMSLSGLLTFGGIGGLAVGMAGKDILSNFFSGIMLYFDRPFSIGDWIRSPDRNIEGTVAEIGWRITKITTFDNRPLYVPNSLFSSISVENPGRMTNRRITTTIGLRYEDAAKVGVIVEAVREMLKNHPAIDQRQTLLVYFNQFADSSLNIMVYCFTKTTVWAEWLAAQQDVYLKIIDIVQSHGADFAFPSQTLYMDNITPPEQGR

Biological target: the molecule itself
Assay: SEC-MALS

Protein	stoichiometry N
B1	7
B2	7
